# pKd: −log10 of the molar value.
# Tests used:
# [1] = molecular target: GST-TbPEX6 (full-length) (Trypanosoma brucei); experiment: AlphaScreen or HTRF
# GST-PreScission protease = experiment: SEC
# [2] = molecular target: tag-free TbPEX6 (Trypanosoma brucei); experiment: SEC
Substance,pKd [1],stoichiometry N (GST-PreScission protease),stoichiometry N [2]
Tag-free TbPEX15ΔTM (1-320aa) (domain or fragment),7.52 to 7.82,,
GST-PreScission protease (enzyme),,2,
His6-TbPEX15ΔTM (1-320aa) (domain or fragment),7.99,,1

# — paper doi:10.1101/2025.10.03.680009
